Reference: publication PMC3000319 (PLoS ONE, 2010)

Biological target: the molecule itself
Experiment: AUC

B1: recombinant ovine PrP (25–233) (natural protein)
chain: not shown
  stoichiometry N: 2
